Assay results from patent publication US20130272968A1 (Bayer, published 2013).

T1: murine prolactin receptor on cells (HEK293 and Ba/F cells stably transfected with murine PRLR) (mouse, UniProt Q08501 20-608)
T1 sequence (looked up): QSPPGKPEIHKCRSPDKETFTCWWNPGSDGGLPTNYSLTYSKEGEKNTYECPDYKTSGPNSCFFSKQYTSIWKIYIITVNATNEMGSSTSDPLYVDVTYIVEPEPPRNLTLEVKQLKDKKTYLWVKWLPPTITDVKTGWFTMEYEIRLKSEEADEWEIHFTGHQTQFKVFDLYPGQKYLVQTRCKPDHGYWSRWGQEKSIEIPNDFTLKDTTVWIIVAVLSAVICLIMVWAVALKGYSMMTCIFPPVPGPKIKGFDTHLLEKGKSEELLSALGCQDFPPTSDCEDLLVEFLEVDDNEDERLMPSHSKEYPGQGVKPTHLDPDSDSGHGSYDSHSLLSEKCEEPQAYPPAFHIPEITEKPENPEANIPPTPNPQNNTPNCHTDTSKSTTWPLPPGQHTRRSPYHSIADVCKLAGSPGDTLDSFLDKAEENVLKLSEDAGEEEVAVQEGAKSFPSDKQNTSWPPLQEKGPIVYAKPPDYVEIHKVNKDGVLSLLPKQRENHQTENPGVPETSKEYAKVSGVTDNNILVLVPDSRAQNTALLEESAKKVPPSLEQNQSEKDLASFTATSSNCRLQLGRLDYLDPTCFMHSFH

T2: extracellular domain of human PRLR (soluble, monomeric, expressed in HEK293 cells) (human, UniProt P16471 25-234)
T2 construct: also called ECD-PRLR; ECD of PRLR
T2 sequence: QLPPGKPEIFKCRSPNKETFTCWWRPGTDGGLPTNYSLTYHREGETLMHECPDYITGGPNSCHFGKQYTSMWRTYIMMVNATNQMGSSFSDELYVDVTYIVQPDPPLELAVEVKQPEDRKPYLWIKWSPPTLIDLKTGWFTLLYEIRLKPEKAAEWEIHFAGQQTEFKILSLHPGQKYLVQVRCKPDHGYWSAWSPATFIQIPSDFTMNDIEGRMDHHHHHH


Experiments:
[1] = biological target: T1, murine prolactin receptor on cells …; assay: cell-based or functional assay
[2] = biological target: T2, extracellular domain of human PRLR …; assay: HTRF competition: Fab-containing E. coli supernatant with biotinylated ECD of human PRLR and streptavidin-europium, then Alexa Fluor 647-labelled IgG1 006-H08 as competitor; signal at 665 nm after 5 to 65 min; lower signal than control Fab 006-H08 = improved binding [Figure 21]
Method: Normalized E. coli-derived supernatants and 8 nM biotinylated extracellular domain of PRLR together with 1 nM Streptavidin-Europium were incubated in 96 well-microtiter plates for 30 min. Afterwards 200 mM KF and 50 nM Alexa Fluor 647-labeled IgG1 of 006-H08 were added. This mixture was incubated at room temperature for 5, 20, 35, 50, and 65 minutes, respectively. At the indicated time points, the absorption at 665 nm (and 620 nm) was measured using EnVision MultilabelReader (Perkin Elmer).

Row | IC50, inhibition of prolactin-activated proliferation of Ba/F cells stably expressing the murine prolactin receptor [1] | binding result [2] | IC50, prolactin-activated luciferase reporter gene activity, HEK293 cells stably transfected with mPRLR [1] | Binder
1 | 43.7 µg/mL |  |  | 001-E06 (human IgG1) (antibody, V domains shown) VH: QVELLESGGGLVQPGGSLRLSCAASGFTFSSYWMSWVRQAPGKGLEWVSSVSDTGTDTHYADSVKGRFTISRDNSKNTLYLQMNSLRAEDTAVYYCAKTPLAYSSGWYYFDYWGQGTLVTVSS VL: DIVLTQPPSASGTPGQRVTISCSGSSSNIGSNTVNWYQQLPGTAPKLLIYRNYQRPSGVPDRFSGSKSGTSASLAISGLRSEDEADYYCQSYDSSLSGSVFGGGTKLTVLG
2 |  | binds |  | 006-H08-53-27-0 (Fab, V domains shown, Tested as E. coli supernatant; also called maturated 006-H08 Fab variant; copies: 1 + 1) VH: EVQLLESGGGLVQPGGSLRLSCAASGFTFDDYGMSWVRQAPGKGLEMVAVISYDGSNKYYADSVKGRFTISRDNSQNTLYLQMNSLRAEDTAVYYCASPLESPVAFDIWGQGTLVTVSS VL: QSVLTQPPSASGTPGQRVTISCSGSNSNIGSNPVNWYQQLPGTAPKLLIYDNNKRPSGVPDRFSGSKSGTSASLAISGLRSEDEADYYCQSYDTGLSGWVFGGGTKLTVL
3 |  | binds |  | 006-H08-35-17-1 (Fab, V domains shown, Tested as E. coli supernatant; also called maturated 006-H08 Fab variant; copies: 1 + 1) VH: EVQLLESGGGLVQPGGSLRLSCAASGFTFDDYGMSWVRQAPGKGLEWVAVISYDGSNKYYADSVKGRFTISRDNSQNTLYLQMNSLRAEDTAVYYCASPLESPVAFDIWGQGTLVTVSS VL: QSVLTQPPSASGTPGQRVTISCSGSNSNIGSNPVNWYQQLPGTAPKLLIYDNNKRPSGVPDRFSGSKSGTSASLAISGLRSEDEADYYCQSYDTGASGWVFGGGTKLTVL
4 |  | binds |  | 006-H08-59-30-0 (Fab, V domains shown, Tested as E. coli supernatant; also called maturated 006-H08 Fab variant; copies: 1 + 1) VH: EVQLLESGGGLVQPGGSLRLSCAASGFTFDDYGMSWVRQAPGKGLEWVAVISFDGSNKYYADSVKGRFTISRDNSQNTLYLQMNSLRAEDTAVYYCASPLESPVAFDIWGQGTLVTVSS VL: QSVLTQPPSASGTPGQRVTISCSGSNSNIGSNPVNWYQQLPGTAPKLLIYDNNKRPSGVPDRFSGSKSGTSASLAISGLRSEDEADYYCQSYDTGLSGWVFGGGTKLTVL
5 |  | binds |  | 006-H08-14-6-0 (Fab, V domains shown, Tested as E. coli supernatant; also called maturated 006-H08 Fab variant; copies: 1 + 1) VH: EVQLLESGGGLVQPGGSLRLSCAASGFTFDDYGMSWVRQAPGKGLEWVAVISYDGSNKYYADSVKGRFTISRDNSQNTLYLQMNSLRAEDTAVYYCASPLESPVAFDIWGQGTLVTVSS VL: QSVLTQPPSASGTPGQRVTISCSGSNSNIGSSPVNWYQQLPGTAPKLLIYDNNKRPSGVPDRFSGSKSGTSASLAISGLRSEDEADYYCQSYDTGLSGWVFGGGTKLTVL
6 |  | binds |  | 006-H08-33-16-0 (Fab, V domains shown, Tested as E. coli supernatant; also called maturated 006-H08 Fab variant; copies: 1 + 1) VH: EVQLLESGGGLVQPGGSLRLSCAASGFTFDDYGMSWVRQAPGKGLEWVAVISYDGSNKYYADSVKGRFTISRDNSQNTLYLQMNSLRAEDTAVYYCASPLESPVAFDIWGQGTLVTVSS VL: QSVLTQPPSASGTPGQRVTISCSGSNSNIGSNPVNWYQQLPGTAPKLLIYDNNKRPSGVPDRFSGSKSGTSASLAISGLRSEDEADYYCQSYDEGLSGWVFGGGTKLTVL
7 |  | binds |  | 006-H08-65-33-2 (Fab, V domains shown, Tested as E. coli supernatant; also called maturated 006-H08 Fab variant; copies: 1 + 1) VH: EVQLLESGGGLVQPGGSLRLSCAASGFTFDDYGMSWVRQAPGKGLEWVAVISYDGSNKYYADSVKGRFTISRDNSQNTLYLQMNSLRAEDTAVYYCASPLESPVAFDIWGQGTLVTVSS VL: QSVLTQPPSASGTPGQRVTISCSGSNDNIGSNPVNWYQQLPGTAPKLLIYDNNKRPSGVPDRFSGSKSGTSASLAISGLRSEDEADYYCQSYDTGLSGWVFGGGTKLTVL
8 |  | binds |  | 006-H08-13-6-1 (Fab, V domains shown, Tested as E. coli supernatant; also called maturated 006-H08 Fab variant; copies: 1 + 1) VH: EVQLLESGGGLVQPGGSLRLSCAASGFTFDDYGMSWVRQAPGKGLEWVAVISYDGSNKYYADSVKGRFTISRDNSQNTLYLQMNSLRAEDTAVYYCASPLESPVAFDIWGQGTLVTVSS VL: QSVLTQPPSASGTPGQRVTISCSGSNSNIGGNPVNWYQQLPGTAPKLLIYDNNKRPSGVPDRFSGSKSGTSASLAISGLRSEDEADYYCQSYDTGLSGWVFGGGTKLTVL
9 |  | binds |  | 006-H08-37-19-0 (Fab, V domains shown, Tested as E. coli supernatant; also called maturated 006-H08 Fab variant; copies: 1 + 1) VH: EVQLLESGGGLVQPGGSLRLSCAASGFTFDDYGMSWVRQAPGKGLEWVAVISYDGSNKYYADSVKGRFTISRDNSQNTLYLQMNSLRAEDTAVYYCASPLESPVAFDIWGQGTLVTVSS VL: QSVLTQPPSASGTPGQRVTISCSGSNSNIGSNPVNWYQQLPGTAPKLLIYDNNKRPSGVPDRFSGSKSGTSASLAISGLRSEDEADYYCQSYDTGLSMWVFGGGTKLTVL
10 |  | binds |  | 006-H08-35-17-4 (Fab, V domains shown, Tested as E. coli supernatant; also called maturated 006-H08 Fab variant; copies: 1 + 1) VH: EVQLLESGGGLVQPGGSLRLSCAASGFTFDDYGMSWVRQAPGKGLEWVAVISYDGSNKYYADSVKGRFTISRDNSQNTLYLQMNSLRAEDTAVYYCASPLESPVAFDIWGQGTLVTVSS VL: QSVLTQPPSASGTPGQRVTISCSGSNSNIGSNPVNWYQQLPGTAPKLLIYDNNKRPSGVPDRFSGSKSGTSASLAISGLRSEDEADYYCQSYDTGSSGWVFGGGTKLTVL
11 |  | binds |  | 006-H08-63-32-4 (Fab, V domains shown, Tested as E. coli supernatant; also called maturated 006-H08 Fab variant; copies: 1 + 1) VH: EVQLLESGGGLVQPGGSLRLSCAASGFTFDDYGMSWVRQAPGKGLEWVAVISYDGSNKYYADSVKGRFTISRDNSQNTLYLQMNSLRAEDTAVYYCASPLESPVAFDIWGQGTLVTVSS VL: QSVLTQPPSASGTPGQRVTISCSGLNSNIGSNPVNWYQQLPGTAPKLLIYDNNKRPSGVPDRFSGSKSGTSASLAISGLRSEDEADYYCQSYDTGLSGWVFGGGTKLTVL
12 |  | binds |  | 006-H08-32-2 (Fab, V domains shown, Tested as E. coli supernatant; also called maturated 006-H08 Fab variant; copies: 1 + 1) VH: EVQLLESGGGLVQPGGSLRLSCAASGFTFDDYGMSWVRQAPGKGLEMVAVISFDGSNKYYADSVKGRFTISRDNSQNTLYLQMNSLRAEDTAVYYCASPLESPVAFDIWGQGTLVTVSS VL: QSVLTQPPSASGTPGQRVTISCSGLNSNVGSNPVNWYQQLPGTAPKLLIYDNNKRPSGVPDRFSGSKSGTSASLAISGLRSEDEADYYCQSYDEGLGGWVFGGGTKLTVL
13 |  | binds |  | 006-H08-36-17-0 (Fab, V domains shown, Tested as E. coli supernatant; also called maturated 006-H08 Fab variant; copies: 1 + 1) VH: EVQLLESGGGLVQPGGSLRLSCAASGFTFDDYGMSWVRQAPGKGLEWVAVISYDGSNKYYADSVKGRFTISRDNSQNTLYLQMNSLRAEDTAVYYCASPLESPVAFDIWGQGTLVTVSS VL: QSVLTQPPSASGTPGQRVTISCSGSNSNIGSNPVNWYQQLPGTAPKLLIYDNNKRPSGVPDRFSGSKSGTSASLAISGLRSEDEADYYCQSYDTGLGGWVFGGGTKLTVL
14 |  | binds |  | 006-H08-68-35-2 (Fab, V domains shown, Tested as E. coli supernatant; also called maturated 006-H08 Fab variant; copies: 1 + 1) VH: EVQLLESGGGLVQPGGSLRLSCAASGFTFDDYGMSWVRQAPGKGLEWVAVISYDGSNKYYADSVKGRFTISRDNSQNTLYLQMNSLRAEDTAVYYCASPLESPVAFDIWGQGTLVTVSS VL: QSVLTQPPSASGTPGQRVTISCSGSNSNVGSNPVNWYQQLPGTAPKLLIYDNNKRPSGVPDRFSGSKSGTSASLAISGLRSEDEADYYCQSYDTGLSGWVFGGGTKLTVL
15 | 0.74 µg/mL |  | 0.45 µg/mL | 005-C04 (human IgG1) (antibody, V domains shown) VH: EVQLLESGGGLVQPGGSLRLSCAASGFTFSSYWMHWVRQAPGKGLEWVSDISSASSYTNYADSVKGRFTISRDNSKNTLYLQMNSLRAEDTAVYYCARGLDARRMDYWGQGTLVTVSS VL: QSVLTQPPSASGTPGQRVTISCTGSSSNIGAGYVVHWYQQLPGTAPKLLIYRNNQRPSGVPDRFSGSKSGTSASLAISGLRSEDEADYYCAAWDDSLNGWLFGGGTKLTVLG
16 |  |  | > 50 µg/mL | XHA06.642 (antibody, human IgG1, V domains shown) VH: EVQLVESGGDLVKPGGSLKLSCAVSGFTFSSYGMSWVRQTPDKRLEWVATVSSGGTYTYYPDSVKGRFTISRDNAKNTLYLQMSSLKSEDSAMYYCARHRGNYYATYYYAMDYWGQGTSVTVSS VL: DIVLTQSPASLAVSLGQGATISCRASKSVSTSGYTYMHWYQQKPGQPPKLLIYLASNLESGVPARFSGSGSGTDFTLNIHPVEEEDAATYYCQHSGELPPSFGGGTKLEIKR
